# Key:
# [1] = system: synovial fluid cells from RA patients; assay: Apoptosis induction, annexin V/PI flow cytometry, synovial fluid cells; type: cell-based, human; conditions: for total cell population in the apoptotic area: untreated control 19%
# Description: (§1) The assay was performed by Phosphatidyl Serine Detection Kit (IOP-116F FITC-conjugated, IQ Products, The Netherlands) using the manufacturer instructions. Human fibroblast cells from OA patients, synovial fluid cells and PBLs from RA and other arthritic patients were incubated with increasing concentrations of galectin-8 variants 1 and 2 (50-2000 ng/ml). Specific binding of annexin V was performed by the incubation of cells for 20 minutes on ice in a binding calcium buffer containing a saturating concentration of annexin V-fluorescein isothiocyanate (FITC) and propdium iodide (PI). After incubation, the cells were pelleted, and analyzed in FACS analyzer (Beckton Dickinson, San Jose, Calif.). Annexin V^+/PI^+ cells were defined as necrotic, while annexin V^+/PI^− cells were defined as apoptotic. The percent of the apoptotic cells of the total cells was determined.
# IL-1β = IL-1β levels in media of LPS-supplemented human synovial tissue / cell cultures, sandwich enzyme immunoassay; type: cell-based; conditions: for decrease of IL-1β levels: synovial tissue culture; for decrease of IL-1β levels / IL-1β levels in media: LPS 3 μg/ml, 48 hours; for IL-1β levels in media: 50-2000 ng/ml
# Description: (§2) Specimen Selection and Culture Conditions: Synovial tissues were obtained from patients undergoing total knee or hip replacement for osteoarthritis (OA). Within 2 hours of removal, synovial tissues were cut into small pieces, of a few millimeters in diameter. Synovial fibroblasts were cultured in 2 ml RPMI 1640 supplemented with 2 mM L-glutamine, 100 U/ml penicillin and 100 μg/ml streptomycin sulphate (Biological Industries).
# (§3) Inflammatory cells and PBLs derived from joints of rheumatoid arthritic (RA) patients were cultured individually [RPMI-1640 (Sigma, Israel)]. The murine fibroblast line, NIH 3T3, was used as a control. The recombinant galectin-8 peptide (r-galectin-8) was added to the culture medium of the synovial fibroblasts at a concentration of 0.125 μM, 0.25 μM, 0.5 μM and 1 μM) together with lipopolysaccharide (LPS, 3 μg/ml). The recombinant galectin-8 peptide variants (r-galectin-8 variant 1 and r-galectin-8 variant 2) were added to all the culture mediums in the following concentrations: 50 ng/ml, 125 ng/ml, 250 ng/ml, 500 ng/ml, 750 ng/ml, 1 μg/ml and 2 μg/ml together with lipopolysaccharide (LPS, 3 μg/ml). Following 48 hours of incubation (37° C., 5% CO2), the measurement of IL-1β, TNF-α and IL-1ra production was performed in supernatants by quantitative sandwich enzyme immunoassay technique (R&D Systems, Inc., USA). Detection limits were 1 pg/ml to 14 pg/ml. IL-1ra production was tested with and without the addition of lipopolysaccharide (LPS, 3 μg/ml) to the culture media.
# TNFα = TNFα levels in media of LPS-supplemented human synovial tissue / cell cultures, sandwich enzyme immunoassay; type: cell-based; conditions: for decrease of TNFα levels: synovial tissue culture; for decrease of TNFα levels / TNFα levels in media: LPS 3 μg/ml, 48 hours; for TNFα levels in media: 50-2000 ng/ml
# Description: as §2, §3
# IL-1ra = IL-1ra levels in media of LPS-supplemented human synovial tissue / cell cultures, sandwich enzyme immunoassay; type: cell-based; conditions: for increase of IL-1ra levels: synovial tissue culture, vs LPS treated control; for increase of IL-1ra levels / IL-1ra levels in media: LPS 3 μg/ml, 48 hours; for IL-1ra levels in media: 50-2000 ng/ml
# Description: as §2, §3
# [2] = system: collagen induced arthritis (CIA); assay: Collagen-induced arthritis (CIA) in DBA/1 mice, footpad thickness; type: in vivo; conditions: 100 μg per injection, IP / systemic, from disease onset every day for 11 days
# From the text: Animal treatment: 44 DBA/1 mice were induced with a joint inflammatory disease by two subcutaneous (s.c.) injections into the base of the tail of type II collagen three weeks apart. Joint inflammation, which appears several days after the last collagen injection, causes enhanced marked foot pad swelling, as well as swelling of other joints. The diameter of nonarthritic footpads is 1.5 to 1.7 mm. A footpad diameter of 1.9 to 2.0 mm was arbitrarily set as disease onset. […] Human galectin-8 protein and variants (100 μg per injection) as well as control injections were injected IP at disease onset and then every day for 11 days. The 44 mice were divided into 5 experimental groups as follows: Group 1 (negative control): systemic injection (starting at CIA onset) of PBS or PBS+30% glycerol (storing dilution solution of galectin proteins) (10 mice). Group 2 (positive control): systemic injection (starting at CIA onset) of anti-mouse TNFα mAb (cat. no. AMC-3012, Biosource Int. Inc. USA) adhering to the standard protocol (i.e., 100 μg antibody/mouse every day for 11 days) (6 mice). Group 3 (positive control): systemic injection of human galectin-8 protein according to the standard protocol (10 mice). Group 4: systemic injection of 100 μg per dose of human galectin-8 variant 1 according to the standard protocol (10 mice). Group 5: systemic injection of 100 μg per dose of human galectin-8 variant 2 (8 mice). The effect on footpad thickness was determined in a “blind” fashion, recording the electronic microcaliper measurements of the thickness of the joints, by picking the animals at random and recording their ears' signs following measurement. The mice were bled prior to disease induction, following disease onset and upon termination of the experiment (approximately day 11). The sera were stored and later analyzed for the presence of rheumatoid factor (RF) and cytokines. The mice were killed upon termination of the experiment and the joints removed from some of the animals for histopathological examination.
# [3] = system: synovial fluid cells of arthritic patients; assay: Flow cytometry of recombinant galectin-8 binding to synovial fluid cells (anti-galectin-8 immunostaining); type: cell-based, human; conditions: 1 μM added to synovial fluid cells
# Description: (§4) Peripheral white blood cells and the total cell population from synovial fluids of arthritic patients were isolated (approximately 10^7 cells) on a Ficoll gradient (Robbins Scientific Corporation, Sunngvale, Calif., USA) and analyzed by flow cytometry using anti-galectin-8 polyclonal antibody (generated in rabbits according to prior art protocols).
# (§5) Specific binding of anti-galectin-8 was performed by the incubation of cells for 20 minutes on ice in a binding calcium buffer containing a saturating concentration of anti-galectin-8. Thereafter, a second incubation with a goat-anti-rat conjugated to fluorescein isothiocyanate (FITC) was effected. After incubation, the cells were pelleted, and analyzed in FACS analyzer (Beckton Dickinson, San Jose, Calif.). Following the initial analysis, recombinant galectin-8 (as prepared in Example 1) (1 μM) was added to both the synovial fluid cells and the PBLs to verify that recombinant galectin-8 may be detected by immunostaining with anti-galectin-8 polyclonal antibody.
# [4] = system: PBLs of arthritic patients; assay: Flow cytometry of recombinant galectin-8 binding to PBLs (anti-galectin-8 immunostaining); type: cell-based, human; conditions: 1 μM added to PBLs
# Description: as §4, §5
# [5] = system: human fibroblasts from OA patients; assay: Apoptosis induction, annexin V/PI flow cytometry, OA fibroblasts; type: cell-based; conditions: for total cell population in the apoptotic area: 24 h, no-addition control 39.5%
# Description: as §1
# [6] = system: PBLs of arthritic patients; assay: Apoptosis induction, annexin V/PI flow cytometry, PBLs; type: cell-based, human; conditions: lowest concentration 50 ng/ml
# Description: as §1
# [7] = 0.25 μM, 0.5 μM and 1 μM, vs LPS treated control, dose dependent
# [8] = 0.125 μM, vs LPS treated control
# [9] = 0.25 μM, vs LPS treated control
# [10] = human fibroblasts from OA patients
molecule,measurement,setting,value
"COc1cccc2c1C(=O)c1c(O)c3c(c(O)c1C2=O)C[C@@](O)(C(=O)CO)C[C@@H]3O[C@H]1C[C@H](N)[C@H](O)[C@H](C)O1 [doxorubicine, reference compound]",total cell population in the necrotic area,"[1]; 24 h, 150 μg/ml, positive control",80%
"galectin-8: recombinant human galectin-8 polypeptide, SEQ ID NO: 4, expressed in E. coli (protein) MLSLNNLQNIIYNPVIPYVGTIPDQLDPGTLIVICGHVPSDADRFQVDLQNGSSVKPRADVAFHFNPRFKRAGCIVCNTLINEKWGREEITYDTPFKREKSFEIVIMVLKDKFQVAVNGKHTLLYGHRIGPEKIDTLGIYGKVNIHSIGFSFSSDLQSTQASSLELTEISRENVPKSGTPQLSLPFAARLNTPMGPGRTVVVKGEVNANAKSFNVDLLAGKSKDIALHLNPRLNIKAFVRNSFLQESWGEEERNITSFPFSPGMYFEMIIYCDVREFKVAVNGVHSLEYKHRFKELSSIDTLEINGDIHLLEVRSW",IL-1β release in the media of human synovial tissue,IL-1β; [7],inhibited
same,decrease of IL-1β levels,IL-1β; [8],approximately 9%
same,decrease of IL-1β levels,IL-1β; [9],~42%
same,decrease of IL-1β levels,"IL-1β; 0.5 μM, vs LPS treated control",~67%
same,TNF-α release in the media of human synovial tissue,TNFα; [7],inhibited
same,decrease of TNFα levels,TNFα; [8],approximately 2%
same,decrease of TNFα levels,TNFα; [9],~43%
same,decrease of TNFα levels,"TNFα; 0.5 μM, vs LPS treated control",~74%
same,IL-1ra production in the media of human synovial tissue,"IL-1ra; 0.25 μM, 0.5 μM and 1 μM, vs untreated control, dose dependent",increased
same,increase of IL-1ra levels,IL-1ra; 0.25 μM,approximately 4 fold
same,increase of IL-1ra levels,IL-1ra; 0.5 μM,~9 fold
same,increase of IL-1ra levels,IL-1ra; 1 μM,~22 fold
same,apoptotic effects in human synovial fluid cells,"[1]; 0.03 μM, 0.1 μM, 0.3 μM and 1 μM, dose dependent, vs serum free medium",induced apoptotic effects
same,total cell population in the apoptotic area,"[1]; 24 h, 0.03 μM",17%
same,total cell population in the apoptotic area,"[1]; 24 h, 0.1 μM",20%
same,total cell population in the apoptotic area,"[1]; 24 h, 0.3 μM",23%
same,increase in apoptosis development,"[1]; 24 h, 1 μM, vs untreated control",3 fold
same,total cell population in the apoptotic area,"[1]; 24 h, 1 μM",58%
same,CIA manifestations (footpad swelling),[2],substantially reduced
same,detection of added recombinant galectin-8 on cells by anti-galectin-8 immunostaining,[3],detected
same,detection of added recombinant galectin-8 on cells by anti-galectin-8 immunostaining,[4],detected
"galectin-8 variant 2: recombinant galectin-8 variant 2 polypeptide, SEQ ID NO: 8, isoform found in synovial fluid cells of arthritic patients (protein) MMLSLNNLENIIYNPYIPYVGTIPDQLDPGTLIVICGHVPSDADRFQVDLQNGSSVKPRADVAFHFNPRFKRAGCIVCNTLINEKWGREEITYDTPFKREKSFEIVIMVLKDKFQDLQSTQASSLELTEISRENVPKSGTPQLSLPFAARLNTPMGPGRTVVVKVRSECKCQKMIIYCDVREFKVAVNGVHSLEYKHRFKELSSIDTLEINGDIHLLEVRSW",IL-1β levels in media,IL-1β; PBLs from RA patients,significantly and dose-dependently inhibited
same,IL-1β levels in media,IL-1β; [10],significantly and dose-dependently inhibited
same,IL-1β levels in media,IL-1β; synovial fluid cells (SFCs),significantly and dose-dependently inhibited
same,TNFα levels in media,TNFα; PBLs from RA patients,significantly and dose-dependently inhibited
same,TNFα levels in media,TNFα; [10],significantly and dose-dependently inhibited
same,TNFα levels in media,TNFα; synovial fluid cells (SFCs),significantly and dose-dependently inhibited
same,IL-1ra levels in media,IL-1ra; PBLs of RA patients,significantly and dose-dependently increased
same,IL-1ra levels in media,IL-1ra; [10],significantly and dose-dependently increased
same,IL-1ra levels in media,IL-1ra; synovial fluid cells (SFCs),significantly and dose-dependently increased
same,maximal apoptotic effect,"[1]; inflammatory cells from joints of arthritic patients, lowest concentration 50 ng/ml",approximately 100%
same,total cell population in the apoptotic area,[5]; 125 ng/ml,52.2%
same,total cell population in the apoptotic area,[5]; 250 ng/ml,50.8%
same,total cell population in the apoptotic area,[5]; 500 ng/ml,62%
same,total cell population in the apoptotic area,[5]; 750 ng/ml,59%
same,total cell population in the apoptotic area,[5]; 1000 ng/ml,71.4%
same,total cell population in the apoptotic area,[5]; 2000 ng/ml,77.4%
same,percentage of apoptotic cells,[5]; increasing concentrations (50-2000 ng/ml),gradually increased
same,maximal apoptotic effect,[6],approximately 100%
same,CIA manifestations (footpad swelling),[2],did not influence

# — US8076087B2, “Galectin sequences and compositions and methods utilizing same for treating or diagnosing arthritis and other chronic inflammatory diseases” (Medical Research Fund of Tel Aviv Souraskv Medical Center, priority 2002, dated 2011)
